Results reported in IntAct's records for PubMed 31515488.

B1: Zinc finger protein Aiolos (Homo sapiens), Q9UKT9 (parent)
chain: MEDIQTNAELKSTQEQSVPAESAAVLNDYSLTKSHEMENVDSGEGPANEDEDIGDDSMKVKDEYSERDENVLKSEPMGNAEEPEIPYSYSREYNEYENIKLERHVVSFDSSRPTSGKMNCDVCGLSCISFNVLMVHKRSHTGERPFQCNQCGASFTQKGNLLRHIKLHTGEKPFKCHLCNYACQRRDALTGHLRTHSVEKPYKCEFCGRSYKQRSSLEEHKERCRTFLQSTDPGDTASAEARHIKAEMGSERALVLDRLASNVAKRKSSMPQKFIGEKRHCFDVNYNSSYMYEKESELIQTRMMDQAINNAISYLGAEALRPLVQTPPAPTSEMVPVISSMYPIALTRAEMSNGAPQELEKKSIHLPEKSVPSERGLSPNNSGHDSTDTDSNHEERQNHIYQQNHMVLSRARNGMPLLKEVPRSYELLKPPPICPRDSVKVINKEGEVMDVYRCDHCRVLFLDYVMFTIHMGCHGFRDPFECNMCGYRSHDRYEFSSHIARGEHRALLK
partner: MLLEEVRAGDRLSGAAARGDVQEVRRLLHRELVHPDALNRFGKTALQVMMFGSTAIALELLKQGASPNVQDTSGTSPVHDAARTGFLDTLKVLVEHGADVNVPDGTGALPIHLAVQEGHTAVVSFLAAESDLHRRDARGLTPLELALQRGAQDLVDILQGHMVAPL
B2: F-box only protein 11 (Homo sapiens), Q86XK2 (parent)
chain: MNSVRAANRRPRRVSRPRPVQQQQQQPPQQPPPQPPQQQPPQQQPPPPPQQQQQQQPPPPPPPPPPLPQERNNVGERDDDVPADMVAEESGPGAQNSPYQLRRKTLLPKRTACPTKNSMEGASTSTTENFGHRAKRARVSGKSQDLSAAPAEQYLQEKLPDEVVLKIFSYLLEQDLCRAACVCKRFSELANDPILWKRLYMEVFEYTRPMMHPEPGKFYQINPEEYEHPNPWKESFQQLYKGAHVKPGFAEHFYSNPARYKGRENMLYYDTIEDALGGVQEAHFDGLIFVHSGIYTDEWIYIESPITMIGAAPGKVADKVIIENTRDSTFVFMEGSEDAYVGYMTIRFNPDDKSAQHHNAHHCLEITVNCSPIIDHCIIRSTCTVGSAVCVSGQGACPTIKHCNISDCENVGLYITDHAQGIYEDNEISNNALAGIWVKNHGNPIIRRNHIHHGRDVGVFTFDHGMGYFESCNIHRNRIAGFEVKAYANPTVVRCEIHHGQTGGIYVHEKGRGQFIENKIYANNFAGVWITSNSDPTIRGNSIFNGNQGGVYIFGDGRGLIEGNDIYGNALAGIQIRTNSCPIVRHNKIHDGQHGGIYVHEKGQGVIEENEVYSNTLAGVWVTTGSTPVLRRNRIHSGKQVGVYFYDNGHGVLEDNDIYNHMYSGVQIRTGSNPKIRRNKIWGGQNGGILVYNSGLGCIEDNEIFDNAMAGVWIKTDSNPTLRRNKIHDGRDGGICIFNGGRGLLEENDIFRNAQAGVLISTNSHPILRKNRIFDGFAAGIEITNHATATLEGNQIFNNRFGGLFLASGVNVTMKDNKIMNNQDAIEKAVSRGQCLYKISSYTSYPMHDFYRCHTCNTTDRNAICVNCIKKCHQGHDVEFIRHDRFFCDCGAGTLSNPCTLAGEPTHDTDTLYDSAPPIESNTLQHN
B3: Mothers against decapentaplegic homolog 4 (Homo sapiens), Q13485 (parent)
chain: MDNMSITNTPTSNDACLSIVHSLMCHRQGGESETFAKRAIESLVKKLKEKKDELDSLITAITTNGAHPSKCVTIQRTLDGRLQVAGRKGFPHVIYARLWRWPDLHKNELKHVKYCQYAFDLKCDSVCVNPYHYERVVSPGIDLSGLTLQSNAPSSMMVKDEYVHDFEGQPSLSTEGHSIQTIQHPPSNRASTETYSTPALLAPSESNATSTANFPNIPVASTSQPASILGGSHSEGLLQIASGPQPGQQQNGFTGQPATYHHNSTTTWTGSRTAPYTPNLPHHQNGHLQHHPPMPPHPGHYWPVHNELAFQPPISNHPAPEYWCSIAYFEMDVQVGETFKVPSSCPIVTVDGYVDPSGGDRFCLGQLSNVHRTEAIERARLHIGKGVQLECKGEGDVWVRCLSDHAVFVQSYYLDREAGRAPGDAVHKIYPSAYIKVFDLRQCHRQMQQQAATAQAAAAAQAAAVAGNIPGPGSVGGIAPAISLSAAAGIGVDDLRRLCILRMSFVKGWGPDYPRQSIKETPCWIEIHLHRALQLLDEVLHTMPIADPQPLD

Variants of: B1
Conditions: with cdn2d_human CDKN2D

Variant | effect of a mutation on the interaction
A24V | with no effect
N119D | with no effect

Variants of: B1
Conditions: with cdn2d_human CDKN2D
Remark: another data set of the same source

Variant | effect of a mutation on the interaction
I338M | with no effect

Variants of: B2
Conditions: with skp1_human SKP1, P63208
Sequence of skp1_human SKP1, P63208 (P63208 whole entry): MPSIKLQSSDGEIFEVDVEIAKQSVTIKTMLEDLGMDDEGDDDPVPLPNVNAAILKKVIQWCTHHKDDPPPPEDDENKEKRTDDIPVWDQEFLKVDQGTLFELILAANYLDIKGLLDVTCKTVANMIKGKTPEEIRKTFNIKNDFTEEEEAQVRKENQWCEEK

Variant | effect of a mutation on the interaction
I306V | with no effect
Y226C | with no effect

Variants of: B3
Conditions: with smad9_human SMAD9, O15198
Sequence of smad9_human SMAD9, O15198 (O15198 whole entry): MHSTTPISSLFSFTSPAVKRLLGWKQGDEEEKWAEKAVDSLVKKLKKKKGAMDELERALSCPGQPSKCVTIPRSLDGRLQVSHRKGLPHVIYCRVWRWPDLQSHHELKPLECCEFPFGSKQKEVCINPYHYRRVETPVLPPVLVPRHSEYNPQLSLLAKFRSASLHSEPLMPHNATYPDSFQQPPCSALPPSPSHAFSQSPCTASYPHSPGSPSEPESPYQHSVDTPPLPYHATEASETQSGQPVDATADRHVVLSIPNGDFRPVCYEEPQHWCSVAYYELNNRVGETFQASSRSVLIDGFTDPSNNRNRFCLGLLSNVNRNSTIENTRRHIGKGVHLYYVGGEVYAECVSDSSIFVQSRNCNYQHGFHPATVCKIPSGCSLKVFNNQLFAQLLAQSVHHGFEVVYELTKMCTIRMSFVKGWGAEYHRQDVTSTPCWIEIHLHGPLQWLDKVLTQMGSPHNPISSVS

Variant | effect of a mutation on the interaction
V350D | disrupting interaction strength
R361C | disrupting interaction strength

Variants of: B3
Conditions: with smad3_human SMAD3, P84022
Sequence of smad3_human SMAD3, P84022 (P84022 whole entry, looked up): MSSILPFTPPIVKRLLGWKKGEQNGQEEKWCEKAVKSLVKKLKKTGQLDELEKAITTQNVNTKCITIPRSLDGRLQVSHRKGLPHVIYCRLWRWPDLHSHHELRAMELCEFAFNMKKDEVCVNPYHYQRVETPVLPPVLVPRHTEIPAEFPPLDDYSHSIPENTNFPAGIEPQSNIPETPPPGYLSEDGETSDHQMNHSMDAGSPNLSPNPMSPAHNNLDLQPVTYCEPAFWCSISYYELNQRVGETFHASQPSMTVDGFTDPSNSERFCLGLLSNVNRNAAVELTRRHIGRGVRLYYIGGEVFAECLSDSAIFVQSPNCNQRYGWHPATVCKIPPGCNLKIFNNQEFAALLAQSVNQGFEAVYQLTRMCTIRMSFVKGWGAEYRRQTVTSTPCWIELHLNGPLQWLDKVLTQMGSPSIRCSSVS

Variant | effect of a mutation on the interaction
V350D | disrupting interaction strength
M294V | with no effect
R361C | disrupting interaction strength
T174N | with no effect
D355N | disrupting interaction strength

Variants of: B3
Conditions: with ews_human EWSR1, Q01844
Sequence of ews_human EWSR1, Q01844 (Q01844 whole entry): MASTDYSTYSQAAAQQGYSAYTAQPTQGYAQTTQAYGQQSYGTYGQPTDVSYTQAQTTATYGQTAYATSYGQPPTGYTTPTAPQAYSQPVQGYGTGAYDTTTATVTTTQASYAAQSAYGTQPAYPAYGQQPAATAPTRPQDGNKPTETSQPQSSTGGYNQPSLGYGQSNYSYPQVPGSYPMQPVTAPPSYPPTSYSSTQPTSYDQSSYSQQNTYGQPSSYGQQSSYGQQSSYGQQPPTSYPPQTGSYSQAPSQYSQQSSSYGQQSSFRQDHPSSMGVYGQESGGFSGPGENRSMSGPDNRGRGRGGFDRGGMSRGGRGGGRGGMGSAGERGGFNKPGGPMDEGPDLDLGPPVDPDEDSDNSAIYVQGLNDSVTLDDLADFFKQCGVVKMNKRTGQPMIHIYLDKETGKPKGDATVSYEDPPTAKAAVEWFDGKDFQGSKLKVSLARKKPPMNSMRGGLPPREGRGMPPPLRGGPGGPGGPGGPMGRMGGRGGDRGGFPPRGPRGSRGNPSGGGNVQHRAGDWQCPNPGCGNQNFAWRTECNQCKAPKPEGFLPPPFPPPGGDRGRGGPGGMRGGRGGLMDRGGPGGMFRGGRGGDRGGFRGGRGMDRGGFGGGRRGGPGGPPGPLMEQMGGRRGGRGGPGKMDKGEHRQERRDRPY

Variant | effect of a mutation on the interaction
T174N | with no effect
D355N | with no effect
